Laboratory results reported in article PMC4883770.

Target: Flag-epitope tagged CncC (Drosophila melanogaster) (UniProt P20482)
Sequence (P20482 whole entry): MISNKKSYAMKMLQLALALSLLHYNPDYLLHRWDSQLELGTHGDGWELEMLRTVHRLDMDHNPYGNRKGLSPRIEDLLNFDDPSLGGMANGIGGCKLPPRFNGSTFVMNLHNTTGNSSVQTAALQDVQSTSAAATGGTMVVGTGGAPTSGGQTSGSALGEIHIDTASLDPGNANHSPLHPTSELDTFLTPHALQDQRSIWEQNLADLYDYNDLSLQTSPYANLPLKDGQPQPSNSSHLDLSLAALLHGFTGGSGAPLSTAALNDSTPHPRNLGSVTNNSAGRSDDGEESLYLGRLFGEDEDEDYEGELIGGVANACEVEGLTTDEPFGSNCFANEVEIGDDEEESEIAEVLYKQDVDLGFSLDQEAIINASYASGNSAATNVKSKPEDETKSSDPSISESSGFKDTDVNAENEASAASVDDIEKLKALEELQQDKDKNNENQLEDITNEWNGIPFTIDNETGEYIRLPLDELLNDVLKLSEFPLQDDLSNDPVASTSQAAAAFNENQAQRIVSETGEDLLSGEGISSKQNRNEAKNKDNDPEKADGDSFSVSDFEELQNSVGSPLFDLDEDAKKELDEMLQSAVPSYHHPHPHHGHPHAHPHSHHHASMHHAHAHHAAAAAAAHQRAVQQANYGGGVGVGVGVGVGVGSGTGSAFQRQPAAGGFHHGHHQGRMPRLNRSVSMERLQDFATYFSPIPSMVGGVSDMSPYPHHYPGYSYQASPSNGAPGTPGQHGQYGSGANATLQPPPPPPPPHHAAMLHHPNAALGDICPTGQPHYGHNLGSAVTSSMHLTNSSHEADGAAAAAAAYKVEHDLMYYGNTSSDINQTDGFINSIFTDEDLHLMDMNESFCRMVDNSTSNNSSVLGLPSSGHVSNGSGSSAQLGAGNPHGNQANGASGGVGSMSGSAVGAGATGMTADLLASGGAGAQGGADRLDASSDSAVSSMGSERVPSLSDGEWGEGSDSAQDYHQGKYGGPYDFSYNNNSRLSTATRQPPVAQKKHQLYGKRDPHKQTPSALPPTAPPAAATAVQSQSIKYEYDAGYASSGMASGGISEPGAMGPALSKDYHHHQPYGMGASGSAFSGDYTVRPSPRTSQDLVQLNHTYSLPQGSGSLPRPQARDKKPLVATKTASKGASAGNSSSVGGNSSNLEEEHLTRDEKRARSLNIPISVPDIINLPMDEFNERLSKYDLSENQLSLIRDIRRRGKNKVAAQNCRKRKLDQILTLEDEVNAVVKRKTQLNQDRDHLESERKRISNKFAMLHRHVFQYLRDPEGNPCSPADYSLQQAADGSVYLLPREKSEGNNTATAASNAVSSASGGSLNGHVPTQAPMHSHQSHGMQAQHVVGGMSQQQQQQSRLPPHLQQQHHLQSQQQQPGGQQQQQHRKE

Chain of Fs(1)h-L, the long isoform of Fs(1)h (female sterile (1) homeotic), P13709 1-2038 (natural protein; acetylated lysines (shown with a generic anti-acetyl lysine antibody; residues not named)) (P13709 whole entry, canonical isoform): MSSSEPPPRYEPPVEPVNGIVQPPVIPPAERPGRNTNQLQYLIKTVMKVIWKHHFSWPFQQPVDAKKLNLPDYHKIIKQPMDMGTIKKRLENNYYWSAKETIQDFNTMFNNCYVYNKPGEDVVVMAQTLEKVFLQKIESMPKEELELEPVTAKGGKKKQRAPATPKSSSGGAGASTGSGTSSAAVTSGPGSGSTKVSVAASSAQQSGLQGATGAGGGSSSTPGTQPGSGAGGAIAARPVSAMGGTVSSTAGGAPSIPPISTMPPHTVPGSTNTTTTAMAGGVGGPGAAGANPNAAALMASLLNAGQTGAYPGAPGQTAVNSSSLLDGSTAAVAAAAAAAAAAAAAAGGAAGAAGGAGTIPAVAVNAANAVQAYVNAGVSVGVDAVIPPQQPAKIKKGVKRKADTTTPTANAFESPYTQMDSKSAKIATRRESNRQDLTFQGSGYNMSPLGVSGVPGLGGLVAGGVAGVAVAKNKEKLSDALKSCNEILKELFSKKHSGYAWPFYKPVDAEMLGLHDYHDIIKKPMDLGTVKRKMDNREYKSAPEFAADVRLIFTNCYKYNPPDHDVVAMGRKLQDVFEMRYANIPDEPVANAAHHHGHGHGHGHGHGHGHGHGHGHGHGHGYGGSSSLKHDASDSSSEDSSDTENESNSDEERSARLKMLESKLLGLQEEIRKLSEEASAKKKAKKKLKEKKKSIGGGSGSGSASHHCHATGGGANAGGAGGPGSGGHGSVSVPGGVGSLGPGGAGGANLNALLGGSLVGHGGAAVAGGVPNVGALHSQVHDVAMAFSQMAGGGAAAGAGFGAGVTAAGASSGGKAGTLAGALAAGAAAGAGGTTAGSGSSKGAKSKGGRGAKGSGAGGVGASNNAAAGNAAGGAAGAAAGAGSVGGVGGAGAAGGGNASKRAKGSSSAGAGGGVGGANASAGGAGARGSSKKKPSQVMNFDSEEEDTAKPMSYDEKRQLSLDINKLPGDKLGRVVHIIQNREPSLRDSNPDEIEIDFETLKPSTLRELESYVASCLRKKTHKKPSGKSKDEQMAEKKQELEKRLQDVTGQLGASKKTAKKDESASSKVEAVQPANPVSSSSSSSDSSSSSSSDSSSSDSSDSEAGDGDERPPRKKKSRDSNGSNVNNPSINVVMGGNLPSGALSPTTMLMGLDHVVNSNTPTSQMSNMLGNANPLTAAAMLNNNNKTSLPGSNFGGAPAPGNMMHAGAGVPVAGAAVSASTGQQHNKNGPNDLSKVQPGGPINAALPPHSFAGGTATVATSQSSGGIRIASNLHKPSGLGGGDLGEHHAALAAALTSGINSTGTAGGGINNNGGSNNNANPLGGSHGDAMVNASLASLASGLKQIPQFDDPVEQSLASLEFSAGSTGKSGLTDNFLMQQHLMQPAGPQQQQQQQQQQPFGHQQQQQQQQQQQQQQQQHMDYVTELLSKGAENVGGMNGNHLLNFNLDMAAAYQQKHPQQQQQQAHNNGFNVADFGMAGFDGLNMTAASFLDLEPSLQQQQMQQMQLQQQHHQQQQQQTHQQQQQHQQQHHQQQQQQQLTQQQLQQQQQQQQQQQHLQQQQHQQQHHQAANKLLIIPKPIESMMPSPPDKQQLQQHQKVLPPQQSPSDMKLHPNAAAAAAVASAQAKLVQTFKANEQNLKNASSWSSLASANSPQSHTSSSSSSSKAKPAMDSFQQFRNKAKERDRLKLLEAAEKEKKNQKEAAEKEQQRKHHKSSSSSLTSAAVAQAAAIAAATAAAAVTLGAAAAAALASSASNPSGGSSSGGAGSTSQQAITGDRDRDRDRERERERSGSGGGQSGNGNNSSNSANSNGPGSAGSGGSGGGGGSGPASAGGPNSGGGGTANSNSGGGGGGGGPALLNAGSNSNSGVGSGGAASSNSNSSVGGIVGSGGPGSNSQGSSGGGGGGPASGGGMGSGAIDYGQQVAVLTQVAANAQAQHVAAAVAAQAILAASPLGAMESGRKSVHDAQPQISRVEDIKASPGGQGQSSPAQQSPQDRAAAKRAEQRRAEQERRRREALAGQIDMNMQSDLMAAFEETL

“Fs(1)h-L, the long isoform of Fs(1)h (female sterile (1) homeotic), P13709 1-2038 (natural protein; acetylated lysines (shown with a generic anti-acetyl lysine antibody; residues not named))” showed an ARE-fluc reporter activity in S2 cells treated with 1μM JQ1 for 24 hrs, fold change relative to controls of 6.5 fold.
